From PMC9009374 come the findings set out here.

By stoichiometry N is commonly meant a count of units in the complex or per binding partner.

The target in this assay is Venus-tagged carboxy-tail segment of CaV1.2 (UniProt P15381). Nature of the assay: FRET or BRET. A general note: Bioluminescence resonance energy transfer reports proximity on the nanometre scale.
UniProt P15381, sequence (P15381 1525-2171): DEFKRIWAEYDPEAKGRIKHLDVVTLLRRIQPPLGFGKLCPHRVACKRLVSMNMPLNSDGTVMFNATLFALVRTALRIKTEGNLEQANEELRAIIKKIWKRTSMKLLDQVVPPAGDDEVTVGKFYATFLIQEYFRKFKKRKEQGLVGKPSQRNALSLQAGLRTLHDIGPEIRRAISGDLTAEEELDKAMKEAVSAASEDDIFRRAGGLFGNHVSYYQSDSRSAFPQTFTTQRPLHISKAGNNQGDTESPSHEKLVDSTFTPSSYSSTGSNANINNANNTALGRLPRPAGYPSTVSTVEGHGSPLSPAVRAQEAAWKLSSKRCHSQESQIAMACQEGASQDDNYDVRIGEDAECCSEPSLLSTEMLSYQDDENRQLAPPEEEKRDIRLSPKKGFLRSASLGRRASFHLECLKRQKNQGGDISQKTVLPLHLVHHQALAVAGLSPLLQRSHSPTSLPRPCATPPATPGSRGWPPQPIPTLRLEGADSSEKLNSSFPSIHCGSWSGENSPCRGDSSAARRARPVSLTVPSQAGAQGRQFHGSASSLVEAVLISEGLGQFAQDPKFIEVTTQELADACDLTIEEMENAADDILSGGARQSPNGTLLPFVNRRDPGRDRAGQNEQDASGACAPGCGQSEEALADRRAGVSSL

As for “Cerulean-tagged calmodulin (CaM) (from UniProt P0DP23 1-149) (natural protein)”, the stoichiometry N was determined as 1.
